Measurements published in patent publication US20260152527A1 (SIGHTSTREAM BIOTHERAPEUTICS, published 2026).
Starred links: 1 amine or outer side, 2 acyl side, 3 side chain; linkers in the order of their positions; H or OH if unused. Positions of bridges follow the written chain, without caps; N, C: chain ends. Non-standard residues stand in square brackets, D forms with d. Primed or numbered codes have the meaning given here. *: point of attachment. HyPA = 3,5-dihydroxyphenylacetic acid (N-terminal cap), O=C(Cc1cc(O)cc(O)c1)*; MoPA = (3-methoxyphenyl)acetic acid (N-terminal cap), COc1cccc(CC(=O)*)c1; dTyr(Me) = O-methyl-D-tyrosine, COc1ccc(C[C@@H](N[*:1])C(=O)[*:2])cc1; Phe(OCH3) = O-methyl-tyrosine, COc1ccc(C[C@H](N[*:1])C(=O)[*:2])cc1; Hgln = homoglutamine, NC(=O)CCC[C@H](N[*:1])C(=O)[*:2]; Trp(1-Me) = Cn1cc(C[C@H](N)C(=O)O)c2ccccc21; Lys(N3) = [N-]=[N+]=NCCCC[C@H](N)C(=O)O; Orn(N3) = [N-]=[N+]=NCCC[C@H](N)C(=O)O; dPhe(4-F) = N[C@H](Cc1ccc(F)cc1)C(=O)O; Acetyl(4-pyridyl) = O=C(Cc1ccncc1)*; R8 = C=CCCCCCC[C@@](C)(N)C(=O)O; PEG8′ = polyethylene glycol-8; S5 = C=CCCC[C@](C)(N)C(=O)O; Hpra = C#CCC[C@H](N)C(=O)O; dPra = C#CC[C@@H](N)C(=O)O; Nle = CCCC[C@H](N)C(=O)O; Octanoyl = CCCCCCCC(=O)*; Pra = C#CC[C@H](N)C(=O)O

B1: KR-057 (peptide)
peptide: Ac-[Nle][Lys(N3)]H[dF]RW[Pra][Hgln]-NH2
modifications: triazole 2-7; not fully specified; printed as Ac-Nle-[Lys(N3)-His-DPhe-Arg-Trp-Pra]-Hgln-NH2
B2: KR-058 (peptide)
peptide: Ac-[Nle][Lys(N3)]H[dTyr(Me)]RW[Pra]K-NH2
modifications: triazole 2-7; not fully specified; printed as Ac-Nle-[Lys(N3)-His-DTyr(Me)-Arg-Trp-Pra]-Lys-NH2
B3: KR-060 (peptide)
peptide: Ac-[Nle][Lys(N3)]H[dF]R[Trp(1-Me)][Pra]K-NH2
modifications: triazole 2-7; not fully specified; printed as Ac-Nle-[Lys(N3)-His-DPhe-Arg-Trp(Me)-Pra]-Lys-NH2
B4: KR-061 (peptide)
peptide: Ac-[Nle][Lys(N3)][Phe(OCH3)][dF]RW[Pra]K-NH2
modifications: triazole 2-7; not fully specified; printed as Ac-Nle-[Lys(N3)-Phe(OCH3)-DPhe-Arg-Trp-Pra]-Lys-NH2
B5: KR-062 (peptide)
peptide: HyPA-[Nle][Lys(N3)]H[dF]RW[Pra]K-NH2
modifications: triazole 2-7; not fully specified; printed as HyPA-Nle-[Lys(N3)-His-DPhe-Arg-Trp-Pra]-Lys-NH2
B6: KR-063 (peptide)
peptide: {MoPA-MoPA}-[Nle][Lys(N3)]H[dF]RW[Pra]K-NH2
modifications: triazole 2-7; not fully specified; printed as MoPA-MoPA-Nle-[Lys(N3)-His-DPhe-Arg-Trp-Pra]-Lys-NH2
B7: KR-065 (peptide)
peptide: Ac-[Nle][Orn(N3)]H[dF]RW[Pra]K-NH2
modifications: triazole 2-7; not fully specified; printed as Ac-Nle-[Orn(N3)-His-DPhe-Arg-Trp-Pra]-Lys-NH2
B8: KR-066 (peptide)
peptide: Ac-[Nle][Lys(N3)]H[dF]RW[Hpra]K-NH2
modifications: triazole 2-7; not fully specified; printed as Ac-Nle-[Lys(N3)-His-DPhe-Arg-Trp-HPra]-Lys-NH2
B9: KR-067 (peptide)
peptide: Ac-[Nle][Pra]H[dF]RW[Lys(N3)]K-NH2
modifications: triazole 2-7; not fully specified; printed as Ac-Nle-[Pra-His-DPhe-Arg-Trp-Lys(N3)]-Lys-NH2
B10: KR-068 (peptide)
peptide: Ac-[Nle][Orn(N3)]H[dF]RW[Hpra]K-NH2
modifications: triazole 2-7; not fully specified; printed as Ac-Nle-[Orn(N3)-His-DPhe-Arg-Trp-Hpra]-Lys-NH2
B11: KR-070 (peptide)
peptide: Ac-[Nle][Lys(N3)]H[dF]RW[dPra]K-NH2
modifications: triazole 2-7; not fully specified; printed as Ac-Nle-[Lys(N3)-His-DPhe-Arg-Trp-DPra]-Lys-NH2
B12: KR-074 (peptide)
peptide: {Acetyl(4-pyridyl)}-[Nle][Lys(N3)]H[dF]RW[Pra]-NH2
modifications: triazole 2-7; not fully specified; printed as PyAA-Nle-[Lys(N3)-His-DPhe-Arg-Trp-Pra]-NH2
B13: KR-015 (peptide)
peptide: Ac-[R8]EHFRWG[S5]-NH2
modifications: staple 1-8
SMILES: CC(=O)N[C@]1(C)CCCCCCC=CCCC[C@@](C)(C(N)=O)NC(=O)CNC(=O)[C@H](Cc2c[nH]c3ccccc23)NC(=O)[C@H](CCCNC(=N)N)NC(=O)[C@H](Cc2ccccc2)NC(=O)[C@H](Cc2c[nH]cn2)NC(=O)[C@H](CCC(=O)O)NC1=O

Molecular target: T1, human recombinant MC1R (CHO-K1 stable cell line, GenScript) (human, UniProt Q01726 1-317)
T1 sequence (Q01726 whole entry): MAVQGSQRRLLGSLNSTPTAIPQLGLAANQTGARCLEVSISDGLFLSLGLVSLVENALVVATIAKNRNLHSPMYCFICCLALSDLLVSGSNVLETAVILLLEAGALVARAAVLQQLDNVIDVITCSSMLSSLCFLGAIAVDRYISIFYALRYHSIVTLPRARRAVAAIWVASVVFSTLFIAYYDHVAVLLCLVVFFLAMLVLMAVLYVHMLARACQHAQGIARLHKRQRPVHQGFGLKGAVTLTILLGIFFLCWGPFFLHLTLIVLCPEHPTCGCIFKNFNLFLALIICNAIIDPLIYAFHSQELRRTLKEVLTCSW
Assay: cell-based or functional assay

| Binder | MC1R IC50 |
| --- | --- |
| Ac-[Nle][Lys(N3)]H[dPhe(4-F)]RW[Pra]-NH2 (triazole 2-7) [KR-049] | 0.019 nM |
| B1 | 0.024 nM |
| B2 | 2.68 nM |
| B3 | 0.79 nM |
| B4 | 28 nM |
| Ac-SYSMEHFRWGK-NH2 [KR-006] | 0.11 nM |
| B5 | 0.03 nM |
| B6 | 0.05 nM |
| B7 | 0.027 nM |
| B8 | 0.0047 nM |
| B9 | 0.11 nM |
| B10 | 0.04 nM |
| B11 | 11.8 nM |
| Ac-EHFRWGKP-NH2 [KR-007] | 1.99 nM |
| B12 | 0.023 nM |
| Ac-[Nle][Lys(N3)]HFRW[Pra]-NH2 (triazole 2-7) [KR-008] | 0.4 nM |
| Ac-[Lys(N3)]EHFRWG[Pra]-NH2 (triazole 1-8) [KR-010] | 170 nM |
| B13 | 25.8 nM |
| Ac-SMEHFRWGKPV-NH2 [KR-002] | 0.44 nM |
| {Octanoyl-PEG8′}-GGSYSMEHFRWGKPV-NH2 [KR-017] | 0.77 nM |

Molecular target: human recombinant MC3R (CHO-K1/Gα15 stable cell line, GenScript) (human, UniProt P41968 1-323)
Sequence (P41968 whole entry): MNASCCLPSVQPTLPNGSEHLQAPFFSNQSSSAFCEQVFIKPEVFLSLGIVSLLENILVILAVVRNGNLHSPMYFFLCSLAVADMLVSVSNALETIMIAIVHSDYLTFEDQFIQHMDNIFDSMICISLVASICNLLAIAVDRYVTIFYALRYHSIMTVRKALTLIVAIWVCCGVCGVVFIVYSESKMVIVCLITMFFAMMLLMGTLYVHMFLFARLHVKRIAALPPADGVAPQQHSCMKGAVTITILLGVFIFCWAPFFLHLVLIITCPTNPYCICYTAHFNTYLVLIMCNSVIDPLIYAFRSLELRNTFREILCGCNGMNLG
Assay: cell-based or functional assay

| Binder | MC3R IC50 |
| --- | --- |
| B1 | 73.3 nM |
| B2 | > 50000 nM |
| B3 | 260 nM |
| B4 | 51.1 nM |
| Ac-SYSMEHFRWGK-NH2 [KR-006] | 224 nM |
| B5 | 13 nM |
| B6 | 62.8 nM |
| B7 | 91.6 nM |
| B8 | 39.9 nM |
| B9 | 66.2 nM |
| B10 | 27.6 nM |
| B11 | 1630 nM |
| Ac-EHFRWGKP-NH2 [KR-007] | 1400 nM |
| B12 | 165 nM |
| Ac-[Nle][Lys(N3)]HFRW[Pra]-NH2 (triazole 2-7) [KR-008] | 1110 nM |
| Ac-[Lys(N3)]EHFRWG[Pra]-NH2 (triazole 1-8) [KR-010] | 13600 nM |
| B13 | 3000 nM |
| Ac-SMEHFRWGKPV-NH2 [KR-002] | 176 nM |
| {Octanoyl-PEG8′}-GGSYSMEHFRWGKPV-NH2 [KR-017] | 310 nM |

Molecular target: T2, human recombinant MC4R (CHO-K1/Gα15 stable cell line, GenScript) (human, UniProt P32245 1-332)
T2 sequence (P32245 whole entry): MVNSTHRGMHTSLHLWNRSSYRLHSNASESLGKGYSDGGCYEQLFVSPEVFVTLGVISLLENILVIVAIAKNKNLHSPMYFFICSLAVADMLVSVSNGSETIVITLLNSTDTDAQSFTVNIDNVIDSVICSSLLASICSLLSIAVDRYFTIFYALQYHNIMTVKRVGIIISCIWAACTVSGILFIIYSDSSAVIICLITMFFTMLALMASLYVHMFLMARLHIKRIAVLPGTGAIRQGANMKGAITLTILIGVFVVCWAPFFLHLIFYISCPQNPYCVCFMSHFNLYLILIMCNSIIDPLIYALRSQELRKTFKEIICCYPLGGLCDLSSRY
Assay: cell-based or functional assay

| Binder | MC4R IC50 |
| --- | --- |
| Ac-[Nle][Lys(N3)]H[dPhe(4-F)]RW[Pra]-NH2 (triazole 2-7) [KR-049] | 16.1 nM |
| B1 | 33.5 nM |
| B2 | 122 nM |
| B3 | 67.6 nM |
| B4 | 101 nM |
| Ac-SYSMEHFRWGK-NH2 [KR-006] | 80.9 nM |
| B5 | 44.4 nM |
| B6 | 67.1 nM |
| B7 | 36 nM |
| B8 | 75.1 nM |
| B9 | 28.7 nM |
| B10 | 21.8 nM |
| B11 | 84.1 nM |
| Ac-EHFRWGKP-NH2 [KR-007] | 16.4 nM |
| B12 | 20.2 nM |
| Ac-[Nle][Lys(N3)]HFRW[Pra]-NH2 (triazole 2-7) [KR-008] | 74.5 nM |
| Ac-[Lys(N3)]EHFRWG[Pra]-NH2 (triazole 1-8) [KR-010] | 452 nM |
| B13 | 485 nM |
| Ac-SMEHFRWGKPV-NH2 [KR-002] | 34.9 nM |
| {Octanoyl-PEG8′}-GGSYSMEHFRWGKPV-NH2 [KR-017] | 139 nM |

Molecular target: T3, human recombinant MC5R (CHO-K1/Ga15 stable cell line, GenScript) (human, UniProt P33032 1-325)
T3 sequence (P33032 whole entry): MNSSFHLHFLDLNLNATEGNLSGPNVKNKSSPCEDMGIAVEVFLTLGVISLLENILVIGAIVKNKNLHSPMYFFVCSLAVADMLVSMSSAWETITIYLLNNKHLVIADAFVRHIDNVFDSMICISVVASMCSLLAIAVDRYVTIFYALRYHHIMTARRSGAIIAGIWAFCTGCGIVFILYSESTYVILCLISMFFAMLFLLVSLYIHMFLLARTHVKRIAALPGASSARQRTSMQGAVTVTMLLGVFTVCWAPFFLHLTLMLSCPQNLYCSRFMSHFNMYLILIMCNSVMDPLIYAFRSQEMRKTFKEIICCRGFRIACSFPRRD
Assay: cell-based or functional assay

| Binder | MC5R IC50 |
| --- | --- |
| Ac-[Nle][Lys(N3)]H[dPhe(4-F)]RW[Pra]-NH2 (triazole 2-7) [KR-049] | 25.2 nM |
| B1 | 107 nM |
| B2 | 195 nM |
| B3 | 319 nM |
| B4 | 150 nM |
| Ac-SYSMEHFRWGK-NH2 [KR-006] | 122 nM |
| B5 | 167 nM |
| B6 | 99.6 nM |
| B7 | 70.2 nM |
| B8 | 64 nM |
| B9 | 79.7 nM |
| B10 | 40.4 nM |
| B11 | 376 nM |
| Ac-EHFRWGKP-NH2 [KR-007] | > 10000 nM |
| B12 | 154 nM |
| Ac-[Nle][Lys(N3)]HFRW[Pra]-NH2 (triazole 2-7) [KR-008] | > 10000 nM |
| Ac-[Lys(N3)]EHFRWG[Pra]-NH2 (triazole 1-8) [KR-010] | > 10000 nM |
| B13 | > 10000 nM |
| Ac-SMEHFRWGKPV-NH2 [KR-002] | 243 nM |
| {Octanoyl-PEG8′}-GGSYSMEHFRWGKPV-NH2 [KR-017] | 210 nM |

Molecular target: T1, human recombinant MC1R (CHO-K1 stable …)
Assay: cell-based or functional assay
Remark: another data set of the same source

| Binder | EC50(nM)-MC1R |
| --- | --- |
| Ac-[Nle][Lys(N3)]H[dPhe(4-F)]RW[Pra]-NH2 (triazole 2-7) [KR-049] | 0.019 nM |

Molecular target: T2, human recombinant MC4R (CHO-K1/Gα15 …)
Assay: cell-based or functional assay
Remark: another data set of the same source

| Binder | EC50(nM)-MC4R |
| --- | --- |
| Ac-[Nle][Lys(N3)]H[dPhe(4-F)]RW[Pra]-NH2 (triazole 2-7) [KR-049] | 16.1 nM |

Molecular target: T3, human recombinant MC5R (CHO-K1/Ga15 …)
Assay: cell-based or functional assay
Remark: another data set of the same source

| Binder | EC50(nM)-MC5R |
| --- | --- |
| Ac-[Nle][Lys(N3)]H[dPhe(4-F)]RW[Pra]-NH2 (triazole 2-7) [KR-049] | 25.2 nM |
